Assay results taken from the supplement of paper PMC7125110.
± gives the standard error. For some assays here: Fewer inactive variants are shown than the library holds.

B1: glmS ribozyme (parent)
chain: AUAAAAGCGCCAGAACUACAGAAAUGUAGUUGACGAGGAGGAGGUUUAUCGAAUUUUCGGCGGAUGCCUCCAAA

Tests used:
Details in all cases: with glucosamine-6-phosphate
glucosamine-6-phosphate [1] = variants of: B1; assay: kcat; higher = faster cleavage; RNA array
Procedure, shortened: (§1)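 On sequenced MiSeq chips, barcoded ribozyme variants were made in situ by E. coli RNA polymerase and followed at 37 °C through a hybridised Cy3 probe. Glucosamine-6-phosphate was flowed in at 40 μM to 10 mM in HEPES/KCl/Mg(OAc)2 buffer. Exponential fits to normalised per-tile medians gave kobs, and weighted Michaelis–Menten fits gave kcat and KM.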

glucosamine-6-phosphate [2] = variants of: B1; assay: self-cleavage kobs at 40 uM GlcN6P; higher = faster cleavage; RNA array
Procedure, shortened: as §1

glucosamine-6-phosphate [3] = variants of: B1; assay: self-cleavage kobs at 160 uM GlcN6P; higher = faster cleavage; RNA array
Procedure, shortened: as §1

glucosamine-6-phosphate [4] = variants of: B1; assay: self-cleavage kobs at 640 uM GlcN6P; higher = faster cleavage; RNA array
Procedure, shortened: as §1

glucosamine-6-phosphate [5] = variants of: B1; assay: self-cleavage kobs at 2500 uM GlcN6P; higher = faster cleavage; RNA array
Procedure, shortened: as §1

glucosamine-6-phosphate [6] = variants of: B1; assay: self-cleavage kobs at 10000 uM GlcN6P; higher = faster cleavage; RNA array
Procedure, shortened: as §1

glucosamine-6-phosphate [7] = variants of: B1; assay: KM; higher = weaker cofactor use; RNA array
Procedure, shortened: as §1

| Variant | kcat (glucosamine-6-phosphate [1]) [s⁻¹] | self-cleavage kobs at 40 uM GlcN6P (glucosamine-6-phosphate [2]) [s⁻¹] | self-cleavage kobs at 160 uM GlcN6P (glucosamine-6-phosphate [3]) [s⁻¹] | self-cleavage kobs at 640 uM GlcN6P (glucosamine-6-phosphate [4]) [s⁻¹] | self-cleavage kobs at 2500 uM GlcN6P (glucosamine-6-phosphate [5]) [s⁻¹] | self-cleavage kobs at 10000 uM GlcN6P (glucosamine-6-phosphate [6]) [s⁻¹] | KM (glucosamine-6-phosphate [7]) [µM] |
| --- | --- | --- | --- | --- | --- | --- | --- |
| C8U C34U G35U C70A | < 1e-05 | < 1e-05 | – | – | – | – | – |
| U31G U69G | 5.43e-05 ± 8.8e-06 | – | 9.12e-05 ± 1.7e-05 | 5.73e-05 ± 1.2e-05 | 5.24e-05 ± 7.9e-06 | 4.43e-05 ± 1e-05 | – |
| A12G U65G C67A | 0.000136 ± 1.4e-05 | – | – | – | 6.02e-05 ± 1.2e-05 | 0.000108 ± 3.2e-05 | 3010 ± 610 |
| C16G G41C | 2.59e-05 ± 7.1e-06 | < 1e-05 | < 1e-05 | – | – | – | – |
| G51A C71U | < 1e-05 | < 1e-05 | – | – | – | – | – |
| G60A G66C | < 1e-05 | – | – | < 1e-05 | < 1e-05 | < 1e-05 | – |
| C16A A48C | < 1e-05 | < 1e-05 | – | – | – | – | – |
| C11A G37A | < 1e-05 | – | – | – | – | – | – |
| A42U A64G | 0.000148 ± 1.7e-05 | – | – | 3.08e-05 ± 7.7e-06 | 0.000102 ± 1.3e-05 | 0.00012 ± 1.1e-05 | 1930 ± 650 |
| G43U A73U | 4.34e-05 ± 8.8e-06 | – | – | – | 4.73e-05 ± 2.1e-05 | 3.88e-05 ± 1e-05 | – |
| A52U U56A | 7.93e-05 ± 2e-05 | < 1e-05 | – | – | 7.17e-05 ± 1.7e-05 | 6.73e-05 ± 9.7e-06 | – |
| U46G C70G | 0.00028 ± 2.1e-05 | 4.54e-05 ± 1.1e-05 | 0.000122 ± 1.7e-05 | 0.000265 ± 3.3e-05 | 0.000263 ± 3.4e-05 | 0.000258 ± 2.6e-05 | 192 ± 44 |
| G37A U45A | 0.00537 ± 0.00043 | 0.000126 ± 1.4e-05 | 0.000452 ± 8.9e-05 | 0.00131 ± 0.00021 | 0.0027 ± 0.0006 | 0.00477 ± 0.00049 | 1760 ± 210 |
| U30G C70A | 6.7e-05 ± 4.4e-06 | – | – | 3.81e-05 ± 9.7e-06 | 6.45e-05 ± 9.7e-06 | 6.09e-05 ± 8.7e-06 | 410 ± 130 |
| A12G C16G | 0.000144 ± 1.3e-05 | – | – | – | 3.92e-05 ± 1.4e-05 | 8.35e-05 ± 1.2e-05 | 7160 ± 1300 |
| A36G | 2.12e-05 ± 2.6e-06 | – | – | – | 1.72e-05 ± 3e-06 | 1.89e-05 ± 1.4e-06 | – |
| C61U G63C | < 1e-05 | – | – | – | < 1e-05 | – | – |
| U49G C50U A64U C67G C70A | 3.56e-05 ± 1.6e-05 | – | – | 4.15e-05 ± 2e-05 | – | – | – |
| G44U A52U | 1.54e-05 ± 1.1e-06 | < 1e-05 | – | < 1e-05 | – | – | – |
| A42U C50G | < 1e-05 | < 1e-05 | – | – | – | < 1e-05 | – |
